± gives the uncertainty stated by the source.

A short description of the data set: amyloid nucleation score (Sup35N fusion, yeast selection) (log enrichment); library NNK3; higher = more nucleation; inactive = no reads after selection. A digest of the protocol: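 Sup35N was fused to peptides of 20 random codons and expressed in psi-negative yeast, which were induced with 100 μM copper sulfate for 24 hours and then grown on medium lacking adenine and uracil for 7 days at 30°C. Plasmid inserts from input and output were sequenced on Illumina. The nucleation score is the DiMSum log enrichment of output over input reads, centred on the mode score of non-aggregating sequences. Sequences with under 100 input reads were left out, and random libraries had three technical output replicates.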
With QFPSSQN, the amyloid nucleation score result is “inactive”.

As for DVPVKNSYDFMYDCWAMPCS, the amyloid nucleation score result was “inactive”.

As for RCGYHFHQVAFFTKDVKVVE, the amyloid nucleation score result is “inactive”.

For DVRRWNNYDLRGWVVA, the amyloid nucleation score result was “inactive”.

With SVVVVSWTTMLNDKLDPLDG, the amyloid nucleation score entry was “inactive”.

On to GLFRFFVIIITEEVRRAVSK, for which the amyloid nucleation score result was “inactive”.

Consider LIDNRRFRHLLTRNVFVSHH, for which the amyloid nucleation score entry is “inactive”.

Turning to CWFLVTMGYAGCFFSPVTQL, the amyloid nucleation score entry was “inactive”.

The substance TCRICTFGVWDFCRTDERRH showed an amyloid nucleation score of 2.24 ± 0.069.

In the case of WRTFLCWYVLGPKTSFEYGR, the amyloid nucleation score result was “inactive”.

As for GIRYQRFVRRVFHDYWR, the amyloid nucleation score result is “inactive”.

On to ILAVAPVVPGVVLGRNCRAR, for which the amyloid nucleation score result was “inactive”.

SKSIMTWWEVLDGGSNLKSV: the amyloid nucleation score result is “inactive”.

With AEGLCCMANLWSCAGSRTYT, the amyloid nucleation score turned out to be 0.947 ± 0.13.

Consider RFYNDW, for which the amyloid nucleation score entry was “inactive”.

As for RIVEGMYLYVLS, the amyloid nucleation score entry is “inactive”.

With IVANGCRWQVRVPWGLTSKW, the amyloid nucleation score entry is “inactive”.

As for SMQRNSQFLLAQYTDPGGN, the amyloid nucleation score result was “inactive”.

With TVLWFSC, the amyloid nucleation score result is “inactive”.

On to YGEAAYRDRS, for which the amyloid nucleation score entry is “inactive”.

As to TWYVLSNDNSCVYTGPTCQ, the amyloid nucleation score entry is “inactive”.

Consider FSRTRVTLV, for which the amyloid nucleation score entry was “inactive”.

For MYNSTLSWRL, the amyloid nucleation score entry was “inactive”.

Turning to KPSSFNDAIR, the amyloid nucleation score entry is “inactive”.

As for AVFGCFWFAMGLSFLYAKSL, the amyloid nucleation score entry was “inactive”.

Take GPSSMINNVDLSCFSF: the amyloid nucleation score entry was “inactive”.

With FPVSMENFKYA, the amyloid nucleation score result is “inactive”.

In the case of TNLMLSLE, the amyloid nucleation score entry was “inactive”.

For MIWAEQGFFVRWWDLFA, the amyloid nucleation score entry was “inactive”.

On to LRGSYNVS, for which the amyloid nucleation score entry is “inactive”.

In turn, CFVLFLNLLVATGPIWINSP registered an amyloid nucleation score of 0.477 ± 0.2.

On to PDVNVRGGGQLVV, for which the amyloid nucleation score result is “inactive”.

For LKRVDEVVIDPLYREGYTER, the amyloid nucleation score entry is “inactive”.

LTVLDQSCSIYYCTSLHKS registered an amyloid nucleation score of 1.92 ± 0.087.

In the case of CLLEHFK, the amyloid nucleation score result was “inactive”.

Take IYNSAFIGFSRLKVCVYALF: the amyloid nucleation score came out at 0.471 ± 0.17.

Turning to SLFCRWLVVYPSMLRVKRVR, the amyloid nucleation score entry was “inactive”.

Substance CMQSEHTTSAYYRLDCS came in with an amyloid nucleation score of -0.276 ± 0.41.

Consider FGYYTWTAYER, for which the amyloid nucleation score result is “inactive”.

For PVLSIYWTGPLKFNYIMMGL, the amyloid nucleation score entry was “inactive”.

LHLMWMPVTCGEVALCDGQS: the amyloid nucleation score result was “inactive”.

As to SALTIVVLFG, the amyloid nucleation score stood at 0.775 ± 0.2.

Take CVLSSRF: the amyloid nucleation score entry was “inactive”.

For MQYDASP, the amyloid nucleation score entry is “inactive”.

For LPRTYRKALVPNVVVFSYLT, the amyloid nucleation score entry is “inactive”.

With PRYAVALSLD, the amyloid nucleation score entry is “inactive”.

Turning to CFYAISDRRSRFSIIFTYNG, the amyloid nucleation score entry is “inactive”.

Substance FWRLRWYMRDGFSDYSGGEY returned an amyloid nucleation score of 0.719 ± 0.13.

Regarding ISRSVIIDSQRGLCCQTWDW, the amyloid nucleation score result was “inactive”.

Regarding ILIDSGSTLFSIIFQGLLLI, the amyloid nucleation score result was “inactive”.

Turning to PLWHTWFGYAE, the amyloid nucleation score turned out to be 0.494 ± 0.24.

CKGNINTYGYLYLDVYFYIM registered an amyloid nucleation score of 1.94 ± 0.073.

NSFDCVRDWLPLIF: the amyloid nucleation score entry is “inactive”.

KEDKPESTDYNVNT: the amyloid nucleation score result is “inactive”.

Regarding NCVYVLESD, the amyloid nucleation score is -0.075 ± 0.32.

As to SCPIRDSGTGSYL, the amyloid nucleation score result was “inactive”.

With YAFISDYQYGILFYIKWYFG, the amyloid nucleation score result is “inactive”.

LSLCRT returned an amyloid nucleation score of 0.001 ± 0.32.

As for SGFSYRFRDSMGLDKYRCAN, the amyloid nucleation score entry is “inactive”.

For VTQSNGVHKGAR, the amyloid nucleation score entry was “inactive”.

On to SSFGQICIRSMQYLVGCKWC, for which the amyloid nucleation score entry was “inactive”.

With RNNDDSVLMDMLCMKCRTWL, the amyloid nucleation score entry was “inactive”.

Take SIIGKNYKFRATSINKGISM: the amyloid nucleation score entry is “inactive”.

RAYSYPSDYWW: the amyloid nucleation score is -0.122 ± 0.43.

FDYWCKVMSHEYYVEEPNIY: the amyloid nucleation score result is “inactive”.

As for KFSYNVQLRVAWYVSGGSGT, the amyloid nucleation score entry was “inactive”.

Consider FYGHQVNISGDNGVRTRPEV, for which the amyloid nucleation score entry is “inactive”.

Regarding EGVFHACDSTGT, the amyloid nucleation score is -0.737 ± 1.5.

As for FHGYRLVYPSDYPWCLSSVH, the amyloid nucleation score result is “inactive”.

On to FTVYCF, for which the amyloid nucleation score result is “inactive”.

On to VTLVNKKGWSFATAITMWKR, for which the amyloid nucleation score entry was “inactive”.

With QLIWYTACKASIDVNRHGSG, the amyloid nucleation score result is “inactive”.

As to LPGCVSEFG, the amyloid nucleation score entry is “inactive”.

NGFSTVTSSPGLCFLYRMFI: the amyloid nucleation score entry was “inactive”.

VLDVVGKKFMRVSWQDGMPG returned an amyloid nucleation score of 1.13 ± 0.18.

For VFFVQCNHWNGMVNVFAM, the amyloid nucleation score was found to be 2.9 ± 0.057.

VEAHLLL gave an amyloid nucleation score of 0.01 ± 0.87.

For KQLHLMLIVQIVATKTVNAP, the amyloid nucleation score entry was “inactive”.

MCRVV returned an amyloid nucleation score of -0.294 ± 0.93.

As for DYTGT, the amyloid nucleation score was -0.191 ± 0.74.

As to IDLKGLGLYSTSEVWARQQK, the amyloid nucleation score entry is “inactive”.

Turning to GGRDNTEIDVMTWRRRPGKS, the amyloid nucleation score result was “inactive”.

TVCYYWRN displayed an amyloid nucleation score of 0.911 ± 0.2.

With RTGEFMRGLMVGDSVKWVF, the amyloid nucleation score entry is “inactive”.

In the case of GLEFRARRKCRTKGELHDK, the amyloid nucleation score entry is “inactive”.

As to RVCSALCIRVLALFGCCSVE, the amyloid nucleation score stood at 1.05 ± 0.19.

Consider DRGVLFRHIILGSPHIMNRV, for which the amyloid nucleation score result was “inactive”.

Turning to CSSQTIRGTDKSHDVLAKLL, the amyloid nucleation score result is “inactive”.

For the substance TWDWGCKVGFRKGKKV, the amyloid nucleation score result is “inactive”.

With VLVEVEIYLILFIVYAW, the amyloid nucleation score entry is “inactive”.

On to FGTLFSTVFRVLRFNRISAP, for which the amyloid nucleation score entry was “inactive”.

Turning to IWDGSADKFVDPHRACRLWR, the amyloid nucleation score result is “inactive”.

As for YTTKRL, the amyloid nucleation score entry was “inactive”.

In turn, ACGFSFF showed an amyloid nucleation score of -0.264 ± 0.98.

As to LQVLFSYYFENRSGDLVRDD, the amyloid nucleation score amounted to 0.641 ± 0.14.

Take DRFFTSFSVCSPNDDKGLL: the amyloid nucleation score result is “inactive”.

Regarding KFSMMYLRYFVWFLRLIMAS, the amyloid nucleation score result is “inactive”.

LMPRTEI: the amyloid nucleation score entry is “inactive”.

CGVCFYHIAWGSVHDTS returned an amyloid nucleation score of 0.93 ± 0.16.

(Values after the supplement of paper PMC12042874.)
